What was measured:
Format in all cases: in vivo, human
[1] = system: OVC subjects; experiment: Phase 1 dose escalation and expansion parts as of new cut-off date: tumor response, ORR and PFS
Procedure: (§1) The dose expansion part of the Phase 1 study was a multicenter, open-label, multiple-dose, first-in-human study of DS-6000a, which enrolled subjects in the United States (see clinicaltrials.gov identifier NCT 04707248). DS-6000a was administered intravenously every 3 weeks. The dose expansion part included administering to RCC and OVC subjects at RDEs. Initially, dose of 8.0 mg/kg was expanded, subsequently, the 6.4, 5.6 and 4.8 mg/kg doses were added as RDEs (FIG. 12).
(§2) Objective response rate (ORR), clinical benefit rate (CBR), and disease control rate (DCR) were summarized with 95% confidence intervals (CI) using the Clopper-Pearson method; duration of response (DOR) and progression-free survival (PFS) were summarized using the Kaplan-Meier method. Safety endpoints, PK parameters and plasma anti-drug antibodies were summarized using descriptive statistics.
(§3) After the initial data-cut, additional patients were enrolled in Phase 1 (both escalation and expansion), bringing the overall number of participants to sixty-seven (N=67). The demographic and baseline characteristics of the patient enrolled in dose escalation and expansion parts of the Phase 1 study as of new cut-off date are shown in FIG. 13. Subjects ranged in age from 34 to 83 years with a median age of 63 years. A median of 4 prior lines of therapy was administered. The prior lines of therapy comprise a platinum-based chemotherapeutic, a chemotherapeutic, a PARP inhibitor, an immune checkpoint inhibitor, an angiogenic inhibitor and a VEGFR-TKI. The subjects were 25.4% RCC, 74.6% OVC and 64.2% had Eastern Cooperative Oncology Group performance status (ECOG PS) of 1.
One confirmed CR and 14 confirmed PR were observed among 44 evaluable OVC subjects at doses ranging from 1.6 to 9.6 mg/kg. SD was reported for 24 subjects (FIG. 17).

[2] = system: RCC and OVC subjects; experiment: Phase 1 dose escalation part: tumor response per RECIST V1.1
Procedure: (§4) The dose escalation part of the Phase 1 study was a multicenter, open-label, multiple-dose, first-in-human study of DS-6000a, which enrolled subjects in the United States (see clinicaltrials.gov identifier NCT 04707248). DS-6000a was administered intravenously every 3 weeks. In the dose escalation part, RCC and OVC subjects were enrolled and dose-limiting toxicity (DLT) was assessed during Cycle 1.
(§5) Patient assessments included echocardiogram or multigated acquisition scan, 12-lead electrocardiogram, AEs, PK, human anti-human antibodies, biomarkers, and tumor assessments at prespecified visits. The demographic and baseline characteristics of the patient enrolled in this dose escalation part of the Phase 1 study are shown in FIG. 2.
(§6) For this dose escalation part of the Phase 1 study, Bayesian optimal interval (BOIN) design was used to estimate the MTD. Accelerated titration, treat a single subject at a dose level, was performed until any DLT or ≥Grade 2 AE possibly related to DS-6000a (excluding infusion-related reactions) is observed during Cycle 1. Objective response rate (ORR), clinical benefit rate (CBR), and disease control rate (DCR) were summarized with 95% confidence intervals (CI) using the Clopper-Pearson method; duration of response (DOR) and progression-free survival (PFS) were summarized using the Kaplan-Meier method. Safety endpoints, PK parameters and plasma anti-drug antibodies were summarized using descriptive statistics.

[3] = system: RCC and OVC subjects; experiment: Phase 1 dose escalation and expansion parts as of new cut-off date: safety and tolerability
Procedure: as §1
The primary objective of the dose expansion part was to evaluate the safety, tolerability, and efficacy at the RDEs.
Patient assessments included echocardiogram or multigated acquisition scan, 12-lead electrocardiogram, AEs, PK, human anti-human antibodies, biomarkers, and tumor assessments at prespecified visits.
as §2, §3
Subjects had received DS-6000a as monotherapy with a median treatment duration of 15.4 weeks (range 3.0 to 93.9 weeks). The number of patients in the dose escalation and expansion parts of the Phase 1 study as of new cut-off date with TEAE, which occurred in […] of patients, regardless of causality, is shown in FIG. 14.

[4] = system: RCC and OVC subjects; experiment: Phase 1 dose escalation part: safety and tolerability (TEAEs, DLT, RDE)
Procedure: as §4
The primary objective of the dose escalation part was to investigate the safety and tolerability and determine the maximum-tolerated dose (MTD) and/or recommended dose for expansion (RDE).
as §5, §6

[5] = system: CA-125; experiment: Phase 1 dose escalation part: CA-125 response (GCIG criteria)
Description: (§7) Secondary objectives included characterizing the pharmacokinetic (PK) properties of DS-6000a, total anti-CDH6 antibody, drug component and assessing the immunogenicity. Exploratory objectives included evaluating biomarker that correlate with efficacy and disease assessment in OVC using Gynecologic Cancer Intergroup (GCIG) criteria.

[6] = system: CA-125; experiment: Phase 1 dose escalation and expansion parts as of new cut-off date: CA-125 response
Description: as §7

[7] = among 44 evaluable OVC subjects, 1.6 to 9.6 mg/kg, new cut-off date
[8] = dose escalation part, among 24 efficacy evaluable patients
[9] = dose escalation and expansion parts, new cut-off date, N=67

DS-6000a: anti-CDH6 antibody (SEQ ID NO: 69 positions 20-471; SEQ ID NO: 61 positions 21-233) bound via thioether bond to drug linker; DAR 7 to 8
preliminary efficacy signals by dose ([1]; 4.8 and 6.4 mg/kg compared to 8.0 mg/kg, small sample size): better preliminary efficacy signals
median PFS ([1]; OVC subjects, 3.2 mg/kg): 13.9 months
median PFS ([1]; OVC subjects, 4.8 mg/kg): 7.9 months
median PFS ([1]; OVC subjects, 6.4 mg/kg): 5.8 months
median PFS ([1]; OVC subjects, 8.0 mg/kg): 5.6 months
median PFS ([1]; OVC subjects, doses ranging from 1.6 to 9.6 mg/kg): 5.8 months
dose-effect on efficacy ([1]; OVC subjects, higher dosing group, FIG. 16): consistent and pronounced reduction in tumor size
ORR compared to current standard of care (single-agent chemotherapies) in platinum resistant ovarian cancer ([1]; OVC subjects, new cut-off date): Higher ORR
PFS compared to current standard of care (single-agent chemotherapies) in platinum resistant ovarian cancer ([1]; OVC subjects, new cut-off date): Longer PFS
ORR ([1]; among 41 evaluable OVC subjects with measurable disease at baseline, 1.6 to 9.6 mg/kg): 36.6%
confirmed CR [1, 7]: One
confirmed PR [1, 7]: 14
time stayed in treatment, one patient with SD ([2]; dose escalation part, 8.0 mg/kg): more than 180 days
tumor shrinkage in target lesion ([2]; dose escalation part, 3.2, 4.8, 6.4, 8.0 and 9.6 mg/kg dose levels): Tumor shrinkages were observed
durability of tumor responses ([2]; dose escalation part, FIG. 6): durable
PRs based on RECIST V1.1 ([2]; dose escalation part, RCC, among 24 efficacy evaluable patients): one
best percent change in sum of longest dimensions from baseline (tumor reduction) ([2]; dose escalation part, a patient in the 9.6 mg/kg dosing group): 68.8%
Non-CR/Non-PDs [2, 8]: 2
PRs (including single point PRs, not yet confirmed responses) based on RECIST V1.1 [2, 8]: 6
stable diseases (SDs) [2, 8]: 12
PRs based on RECIST V1.1 ([2]; dose escalation part, platinum-resistant OVC, among 24 efficacy evaluable patients): five
maximum decrease in tumor size ([2]; one clear cell RCC patient, 3 prior therapies including ICI and VEGFR-TKI, 3.2 mg/kg, 51.4 weeks following initiation of treatment): 64.3%
maximum decrease in tumor size ([2]; one platinum-resistant OVC patient, 3 prior therapies including bevacizumab and PARP inhibitor, 6.4 mg/kg, 40.4 weeks following initiation of treatment): 35.7%
fatal cases ([3]; 8.0 mg/kg): 3
tolerability ([3]; 8.0 mg/kg, frequent dose reduction/interruption compared to lower doses): not tolerated
doses at which well tolerated ([3]; dose escalation and expansion parts, new cut-off date): up to 6.4 mg/kg
most frequently reported Grade 23 events [3, 9]: hematological events
severity of the majority of the gastrointestinal events [3, 9]: Grade 1 or 2
most frequently reported TEAEs ([3]; dose escalation and expansion parts, new cut-off date, N=67, monotherapy): gastrointestinal events (nausea, vomiting and diarrhea), fatigue, decreased appetite and hematological events (anaemia, neutrophil count decreased and platelet count decreased)
patients discontinued due to PD per RECIST V1.1 ([4]; 1.6 mg/kg): 1 patients
patients discontinued due to clinical progression ([4]; 3.2 mg/kg): 1 patients
patients discontinued due to death ([4]; 3.2 mg/kg): One
patients required dose interruption ([4]; 3.2 mg/kg): 1 patients
patients discontinued due to clinical progression ([4]; 4.8 mg/kg): 1 patients
patients required dose interruption ([4]; 4.8 mg/kg): 2 patients
patients discontinued due to PD per RECIST V1.1 ([4]; 6.4 mg/kg): 2 patients
patients discontinued due to clinical progression ([4]; 6.4 mg/kg): 1 patients
patients required dose interruption ([4]; 6.4 mg/kg): 3 patients
patients discontinued due to PD per RECIST V1.1 ([4]; 8.0 mg/kg): 2 patients
patients discontinued due to clinical progression ([4]; 8.0 mg/kg): 1 patients
patients required dose interruption ([4]; 8.0 mg/kg): 1 patients
patients required dose reduction ([4]; 8.0 mg/kg): 1 patients
patients discontinued due to adverse event ([4]; 9.6 mg/kg): One
patients required dose interruption ([4]; 9.6 mg/kg): 2 patients
patients required dose reduction ([4]; 9.6 mg/kg): 2 patients
DLTs ([4]; 9.6 mg/kg, Cycle 1, Gr3 febrile neutropenia and Gr4 platelet count decreased): Two
serious TEAEs considered drug-related ([4]; Grade 3 anaemia and Grade 3 febrile neutropenia at 9.6 mg/kg): Two
RDE (recommended dose for expansion) ([4]; IV every 3 weeks): 8.0 mg/kg
grade of serious TEAEs ([4]; N=30): all events are Grade 3
patients with serious TEAEs ([4]; N=30 (4/30)): 13.3%
patients reported Grade 23 related TEAE ([4]; N=30 (7/30), drug-related): 23.3%
patients reported Grade 23 TEAE ([4]; N=30 (10/30), regardless of causality): 33.3%
patients discontinued from treatment ([4]; N=30 (13 patients)): 43.3%
patients with drug-related TEAEs ([4]; N=30 (25 patients)): 83.3%
patients reported 21 TEAE ([4]; N=30 (26/30), regardless of causality, IV every 3 weeks): 86.7%
patients discontinued due to PD per RECIST V1.1 ([4]; N=30, all dose levels): 5 patients
patients discontinued due to clinical progression ([4]; N=30, all dose levels): Four
patients required dose interruption ([4]; N=30, all dose levels): Nine
patients required dose reduction ([4]; N=30, all dose levels): three
Grade 23 related TEAE neutrophil count decreased ([4]; N=30, drug-related): 16.7%
related TEAE decreased appetite ([4]; N=30, drug-related): 20.0%
related TEAE fatigue ([4]; N=30, drug-related): 56.7%
related TEAE nausea ([4]; N=30, drug-related): 60.0%
related TEAE neutrophil count decreased ([4]; N=30, drug-related): 23.3%
related TEAE vomiting ([4]; N=30, drug-related): 30.0%
Grade 23 TEAE anaemia ([4]; N=30, regardless of causality): 10.0%
Grade 23 TEAE hypokalemia ([4]; N=30, regardless of causality): 10.0%
Grade 23 TEAE neutrophil count decreased ([4]; N=30, regardless of causality): 16.7%
TEAE decreased appetite ([4]; N=30, regardless of causality): 40.0%
TEAE diarrhoea ([4]; N=30, regardless of causality): 20.0%
TEAE fatigue ([4]; N=30, regardless of causality): 63.3%
TEAE nausea ([4]; N=30, regardless of causality): 60.0%
TEAE neutrophil count decreased ([4]; N=30, regardless of causality): 23.3%
TEAE vomiting ([4]; N=30, regardless of causality): 46.7%
tolerability ([4]; as of data cut off): generally well tolerated
durability of CA-125 responses ([5]; FIG. 8): durable
patients showed CA-125 responder ([5]; among 17 efficacy evaluable OVC patients, at least 50% reduction in CA-125 from baseline, confirmed and maintained at least 28 days): 8 patients
CA-125 response rates by dose level ([5]; dose level of 4.8 to 9.6 mg/kg): Higher CA-125 response rates
CA-125 response rates among dose levels ([6]; OVC patients): High CA-125 response rates
CA-125 reductions ([6]; OVC subjects, FIG. 18): deep and durable
patients showed CA-125 responder ([6]; among 28 efficacy evaluable OVC patients, at least 50% reduction in CA-125 from baseline, confirmed and maintained at least 28 days): 15 patients

— US20250082771A1, “DOSAGE REGIMEN OF AN ANTI-CDH6 ANTIBODY-DRUG CONJUGATE” (DAIICHI SANKYO COMPANY, LIMITED, priority 2022, published 2025)
